This is an account of results in article PMC6205234.

In the series the target is GST-NS1 (Influenza A virus (H3N2)) (UniProt P03495). Put plainly: fluorescence anisotropy. On the technique in general: Polarisation of emitted light reports the rotation of a fluorescent probe.
GST-NS1 (Influenza A virus (H3N2)), sequence (P03495 whole entry): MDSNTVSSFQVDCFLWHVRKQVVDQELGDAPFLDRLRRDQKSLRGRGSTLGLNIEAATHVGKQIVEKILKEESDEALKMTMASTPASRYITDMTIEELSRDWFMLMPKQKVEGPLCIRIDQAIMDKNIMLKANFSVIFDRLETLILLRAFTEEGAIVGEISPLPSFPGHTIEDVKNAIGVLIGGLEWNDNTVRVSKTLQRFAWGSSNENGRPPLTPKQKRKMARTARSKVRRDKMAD
Take “CCAUCCUCUACAGGCG / CGCCUGUAGAGGAUGG [dsRK1]”: the Kd was determined as 170 nM.

As for “GCUAUCCAGAUUCUGAUU / GAAUCAGAAUCUGGAUAGC [dsCR1]”, the dissociation constant (Kd) is 2400 nM. Against the preceding sequence, the Kd is about 14-fold higher. The same measure for GGGGGGGGGGGGGGGGGU [Poly (G)18]: 1200 nM.

For orientation: Kd means the concentration at which binding is half-saturated.
